# Square brackets hold non-standard residues; d marks the D form. Ends that are not written are not given here. * marks the point of attachment. Benzoyl(3-OMe) = COc1cccc(C(=O)*)c1; Benzoyl(4-OMe) = COc1ccc(C(=O)*)cc1; d2Thi = N[C@H](Cc1cccs1)C(=O)O; dNal = D-naphthylalanine
# Biological target: MC receptor endogenous to Xenopus laevis melanophores (Xenopus laevis)
# Experiment: cell-based or functional assay
Binder,MCR Antagonism IC50 nM In Xenopus,MCR IC50 nM: antagonism of α-MSH (600 pM) darkening of frog melanophores,IC50 in the frog MCR assay
{Benzoyl(4-OMe)}-AKLL[d2Thi]I[dL]-NH2 (SMILES CC[C@H](C)[C@H](NC(=O)[C@@H](Cc1cccs1)NC(=O)[C@H](CC(C)C)NC(=O)[C@H](CC(C)C)NC(=O)[C@H](CCCCN)NC(=O)[C@H](C)NC(=O)c1ccc(OC)cc1)C(=O)N[C@H](CC(C)C)C(N)=O) [S-167],1200 nM,–,–
{Benzoyl(4-OMe)}-RKLL[dA]I[dL]-NH2 (SMILES CC[C@H](C)[C@H](NC(=O)[C@@H](C)NC(=O)[C@H](CC(C)C)NC(=O)[C@H](CC(C)C)NC(=O)[C@H](CCCCN)NC(=O)[C@H](CCCNC(=N)N)NC(=O)c1ccc(OC)cc1)C(=O)N[C@H](CC(C)C)C(N)=O) [S-164],26 nM,–,–
{Benzoyl(4-OMe)}-RRI[dR]P[dK][dL]-NH2 (SMILES CC[C@H](C)[C@H](NC(=O)[C@H](CCCNC(=N)N)NC(=O)[C@H](CCCNC(=N)N)NC(=O)c1ccc(OC)cc1)C(=O)N[C@H](CCCNC(=N)N)C(=O)N1CCC[C@H]1C(=O)N[C@H](CCCCN)C(=O)N[C@H](CC(C)C)C(N)=O) [SQW-2],–,114 nM,–
"SEEPPISLDLTFHLLREVLEMARAEQLAQQAHSNRKLMEII (peptide, UniProt P06850 154-194, looked up) [human CRH]",–,–,10 µM
{Benzoyl(4-OMe)}-RKLL[d2Thi]A[dL]-NH2 (SMILES COc1ccc(C(=O)N[C@@H](CCCNC(=N)N)C(=O)N[C@@H](CCCCN)C(=O)N[C@@H](CC(C)C)C(=O)N[C@@H](CC(C)C)C(=O)N[C@H](Cc2cccs2)C(=O)N[C@@H](C)C(=O)N[C@H](CC(C)C)C(N)=O)cc1) [S-163],234 nM,–,–
{Benzoyl(4-OMe)}-RALL[d2Thi]I[dL]-NH2 (SMILES CC[C@H](C)[C@H](NC(=O)[C@@H](Cc1cccs1)NC(=O)[C@H](CC(C)C)NC(=O)[C@H](CC(C)C)NC(=O)[C@H](C)NC(=O)[C@H](CCCNC(=N)N)NC(=O)c1ccc(OC)cc1)C(=O)N[C@H](CC(C)C)C(N)=O) [S-166],1200 nM,–,–
{Benzoyl(4-OMe)}-RKLL[dY]I[dL]-NH2 (SMILES CC[C@H](C)[C@H](NC(=O)[C@@H](Cc1ccc(O)cc1)NC(=O)[C@H](CC(C)C)NC(=O)[C@H](CC(C)C)NC(=O)[C@H](CCCCN)NC(=O)[C@H](CCCNC(=N)N)NC(=O)c1ccc(OC)cc1)C(=O)N[C@H](CC(C)C)C(N)=O) [S-116],77 nM,–,–
{Benzoyl(4-OMe)}-RKLL[d2Thi]I[dA]-NH2 (SMILES CC[C@H](C)[C@H](NC(=O)[C@@H](Cc1cccs1)NC(=O)[C@H](CC(C)C)NC(=O)[C@H](CC(C)C)NC(=O)[C@H](CCCCN)NC(=O)[C@H](CCCNC(=N)N)NC(=O)c1ccc(OC)cc1)C(=O)N[C@H](C)C(N)=O) [S-162],43 nM,–,–
{Benzoyl(3-OMe)}-ARIRPKL-NH2 (SMILES CC[C@H](C)[C@H](NC(=O)[C@H](CCCNC(=N)N)NC(=O)[C@H](C)NC(=O)c1cccc(OC)c1)C(=O)N[C@@H](CCCNC(=N)N)C(=O)N1CCC[C@H]1C(=O)N[C@@H](CCCCN)C(=O)N[C@@H](CC(C)C)C(N)=O) [SQW-7],–,110 nM,–

# Other lines, results leading:
MCR Antagonism IC50 nM In Xenopus,MCR IC50 nM: antagonism of α-MSH (600 pM) darkening of frog melanophores,IC50 in the frog MCR assay,Binder
–,17 nM,–,{Benzoyl(4-OMe)}-[dR][dR]I[dR]P[dK][dL]-NH2 (SMILES CC[C@H](C)[C@H](NC(=O)[C@@H](CCCNC(=N)N)NC(=O)[C@@H](CCCNC(=N)N)NC(=O)c1ccc(OC)cc1)C(=O)N[C@H](CCCNC(=N)N)C(=O)N1CCC[C@H]1C(=O)N[C@H](CCCCN)C(=O)N[C@H](CC(C)C)C(N)=O) [SQW-4]
96 nM,–,–,{Benzoyl(4-OMe)}-AKLL[d2Thi]I[dL]-NH2 (SMILES CC[C@H](C)[C@H](NC(=O)[C@@H](Cc1cccs1)NC(=O)[C@H](CC(C)C)NC(=O)[C@H](CC(C)C)NC(=O)[C@H](CCCCN)NC(=O)[C@H](C)NC(=O)c1ccc(OC)cc1)C(=O)N[C@H](CC(C)C)C(N)=O) [S-118]
–,–,> 10 µM,"QGPPISIDLSLELLRKMIEIEKQEKEKQQAANNRLLLDTI (peptide, UniProt P01144 1-40, looked up) [sauvagine]"
166 nM,–,–,{Benzoyl(4-OMe)}-RKLL[dNal]I[dL]-NH2 [S-114]
22 nM,–,–,{Benzoyl(4-OMe)}-RKLL[dW]I[dL]-NH2 (SMILES CC[C@H](C)[C@H](NC(=O)[C@@H](Cc1c[nH]c2ccccc12)NC(=O)[C@H](CC(C)C)NC(=O)[C@H](CC(C)C)NC(=O)[C@H](CCCCN)NC(=O)[C@H](CCCNC(=N)N)NC(=O)c1ccc(OC)cc1)C(=O)N[C@H](CC(C)C)C(N)=O) [S-117]
197 nM,–,–,{Benzoyl(4-OMe)}-RKAL[d2Thi]I[dL]-NH2 (SMILES CC[C@H](C)[C@H](NC(=O)[C@@H](Cc1cccs1)NC(=O)[C@H](CC(C)C)NC(=O)[C@H](C)NC(=O)[C@H](CCCCN)NC(=O)[C@H](CCCNC(=N)N)NC(=O)c1ccc(OC)cc1)C(=O)N[C@H](CC(C)C)C(N)=O) [S-160]
–,–,> 10 µM,"QGKRPWIL (peptide, UniProt P07198 74-81, looked up, ends and bridges not checked) [xenopsin]"
282 nM,–,–,{Benzoyl(4-OMe)}-RKLA[d2Thi]I[dL]-NH2 (SMILES CC[C@H](C)[C@H](NC(=O)[C@@H](Cc1cccs1)NC(=O)[C@H](C)NC(=O)[C@H](CC(C)C)NC(=O)[C@H](CCCCN)NC(=O)[C@H](CCCNC(=N)N)NC(=O)c1ccc(OC)cc1)C(=O)N[C@H](CC(C)C)C(N)=O) [S-165]
–,156 nM,–,{Benzoyl(4-OMe)}-R[dR]I[dR]P[dK][dL]-NH2 (SMILES CC[C@H](C)[C@H](NC(=O)[C@@H](CCCNC(=N)N)NC(=O)[C@H](CCCNC(=N)N)NC(=O)c1ccc(OC)cc1)C(=O)N[C@H](CCCNC(=N)N)C(=O)N1CCC[C@H]1C(=O)N[C@H](CCCCN)C(=O)N[C@H](CC(C)C)C(N)=O) [SQW-3]
237 nM,–,–,{Benzoyl(4-OMe)}-RKLL[d2Thi]I[dL]-NH2 (SMILES CC[C@H](C)[C@H](NC(=O)[C@@H](Cc1cccs1)NC(=O)[C@H](CC(C)C)NC(=O)[C@H](CC(C)C)NC(=O)[C@H](CCCCN)NC(=O)[C@H](CCCNC(=N)N)NC(=O)c1ccc(OC)cc1)C(=O)N[C@H](CC(C)C)C(N)=O) [mystixin-7 (S-21)]
